# T1: human HVEM (Herpes Virus entry mediator) expressed on HEK293T cells (human, UniProt Q92956 39-283)
# T1 construct: whole, on cells; In the cell ELISA the HVEM-introduced HEK293T cells were fixed with 4% paraformaldehyde; in the reporter assay live HVEM-expressing HEK293T cells were used; also called TNFRSF14; HVEM/TNFRSF14
# T1 sequence (looked up): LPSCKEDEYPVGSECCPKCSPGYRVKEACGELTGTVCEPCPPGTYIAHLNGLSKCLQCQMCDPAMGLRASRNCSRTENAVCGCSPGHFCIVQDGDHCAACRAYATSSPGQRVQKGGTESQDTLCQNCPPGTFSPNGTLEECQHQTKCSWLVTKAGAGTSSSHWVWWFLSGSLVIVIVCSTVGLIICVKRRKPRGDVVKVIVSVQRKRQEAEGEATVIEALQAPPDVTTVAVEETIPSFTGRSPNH
# Target: T1, human HVEM (Herpes Virus entry …)
# Assay: cell ELISA on fixed HVEM-expressing HEK293T cells, His-tagged VHH detected with anti-His-tag mAb-HRP
# From the text: The VHH antibodies prepared in the above item (1) were used to measure whether the VHH antibodies were detected in HVEM on the surface of the HVEM-expressing HEK293T cell membrane. Specifically, the HEK293T cells introduced with HVEM and the HEK293T cells not expressing HVEM as a negative control were each seeded at 1×10⁴ cells/well, fixed with 4% paraformaldehyde, and then reacted with the VHH antibodies added with 6×His tag. The horseradish peroxidase HRP-labeled anti-histidine tag antibody anti-His-tag mAb-HRP-DirecT (MBL) was reacted, and ELISA POD Substrate TMB Kit (Nacalai Tesque, Inc.) was used to measure an enzyme reaction of HRP with the substrate. The effect size data obtained for the antibody concentration was subjected to non-linear regression to a sigmoid curve based on the following formula: […]
row,EC50 [nM],Binder
1,< 80,"anti-human HVEM alpaca VHH antibody #3 (VHH, Tested as VHH with a 6xHis tag; also called VHH #3; VHH(I); not shown: 6xHis tag added for the assay) VHH: QVQLVESGGGSVQPGGSLRLSCAASGSIGSIHRWDWYRLCPGKQREWVATLNSEGGPTYADSVEGRFTISRDNAKNMVYLQMNSLKPEDTAVYRCSARTVPFEYWGRGTQVTVSS"
2,< 80,"anti-human HVEM alpaca VHH antibody #5 (VHH, Tested as VHH with a 6xHis tag; also called VHH #5; not shown: 6xHis tag added for the assay) VHH: QVQLVESGGGLVQPGGSLRLSCAASGFTFSSSHMTWVRQAPGKGLEWVSLINSSGRTAYVDSVAGRFTISRDNAKNTLYLQMTNLKPEDTAVYYCSKGGWDGLPSSSIRGQGTQVTVSS"

# Continued, binder first:
row,Binder,EC50 [nM]
1,"anti-human HVEM alpaca VHH antibody #2 (VHH, Tested as VHH with a 6xHis tag; also called VHH #2; VHH(II); not shown: 6xHis tag added for the assay) VHH: QVQLVESGGGLVQPGGSLRLSCVASGRLFDTYTMAWYRLPPGKQRELVADISRTGFTNYADSVKGRFTISRDNAKNTVYLQMNSLKPDDTAHYRCKVREPATMYEYWGQGTQVTVSS",< 80
2,"anti-human HVEM alpaca VHH antibody #1 (VHH, Tested as VHH with a 6xHis tag; also called VHH #1; not shown: 6xHis tag added for the assay) VHH: QVQLVESGGGLVQPGGSLRLSCAASGFTFSTHAMSWYRQAPGKERELVAHISSTGGSTNYADSVKGRFTISRDNAKNTVYLQMNSLKPEDTAVYRCNARDWYEYWGRGTQVTVSS",< 80
3,"anti-human HVEM alpaca VHH antibody #4 (VHH, Tested as VHH with a 6xHis tag; also called VHH #4; not shown: 6xHis tag added for the assay) VHH: QVQLVESGGGLVQPGGSLRLSCAAAESMLSPYSMGWYRLPPGKQRELVASLGSGGRTTYADSVKGRFTISRDNAKNTAYLQMNSLKPEDTAVYRCNIRELLGRRYEYWSQGTQVTVSS",< 80

# — patent publication US20220105122A1 (UNIVERSITY OF TOKYO, published 2022)
